Experimental data taken from patent US20230055005A1 (ROCHE DIAGNOSTICS OPERATIONS, published 2023).
Where a chain is given by its changes, count along the chain named. Bridge positions count the residues as written; N and C are the ends. Square brackets hold non-standard residues; d marks the D form. Primed or numbered codes have the meaning given here. Glu(Bi-PEG)″ = Nδ-(N-biotinyl-3-(2-(2-(3-aminopropyloxy)-ethoxy)-ethoxypropyl)-L-glutamine, biotin-PEG linker residue; Glu(Bi-PEG) = N-terminal added Glu carrying a biotin-linker; Glu(Bi-PEG)(3) = N-terminal added Glu biotin-linker residue; Gla = N[C@@H](CC(C(=O)O)C(=O)O)C(=O)O

T1: Bi-SEQ ID NO: 1, *H**Glu(Bi-PEG)*NLERECVEETCSYEEA*NH2 (disulfide 6-11 (inferred))
T1 construct: Synthetic peptide
T1 peptide: {Glu(Bi-PEG)}-NLERECVEETCSYEEA-NH2

T2: Bi-SEQ ID NO: 4, *H**Glu(Bi-PEG)*…laTCSYEEA*NH2 (disulfide 6-11)
T2 construct: Synthetic peptide; 12-27 of mature prothrombin with Gla at 20
T2 peptide: {Glu(Bi-PEG)(3)}-NLERECVE[Gla]TCSYEEA-NH2

T3: Bi-SEQ ID NO: 3, *H**Glu(Bi-PEG)*…laEA*NH2 (disulfide 6-11; not fully specified)
T3 construct: Synthetic peptide; 12-27 of mature prothrombin with Gla at 25
T3 peptide: {Glu(Bi-PEG)″}-NLERECVEETCSY[Gla]EA-NH2

B1: monoclonal anti-PIVKA-II antibody 7A10 (antibody, V domains shown)
VH: QSLEESGGRLVTPGTPLTLTCTVSGIDLSTYAMGWVRQAPGKGLEYIGIIRSSGRTYYASWAKGRFTVSKTSSTTVDLSMTSPTTEDTATYYCYRNVSLWGQGTLVSVSS
VL: DVVMTQTPSSVEAAVGGTVTIKCQASQSIGNNLAWYQQKPGQRPNLLIYSASTLASGVPSRFRGSGSGTEFTLTISGVQCDDAATYYCQSYAGVSESVFWYSFGGGTGVVVK
notes: Recombinant rabbit IgG from B-cell cloning, expressed in HEK cells
B2: monoclonal anti-PIVKA-II antibody 9A6 (antibody, V domains shown)
VH: QSVEESGGRLITPGTPLTLTCTVSGFDLSRYAVGWVRQAPGKGLEYIGLIVSDGRTYYASWAKGRFTVSKTSSTTVDLKMTSPTAGDTATYYCYRNVSLWGQGTLVSVSS
VL: DVVMTQTPSSVEAAVGGTVTIKCQASQSIGSNLAWYQQKPGQPPKLLIYSASTLASGVPSRFSGSGSGTEFTLTFSGVQCGDAATYFCQSYAGVSANIFYYSFGGGTEVVVM
notes: as for B1
B3: monoclonal anti-PIVKA-II antibody 13H7 (antibody, V domains shown)
VH: B2 VH with I11V, G14E, V33M, V68I, T81A, A85T, G86E, S110E
VL: B2 VL with P59S, S63K, F75I, G77D, V78L, Q79E, G81A, F87Y, V94I, S102A
notes: as for B1
B4: monoclonal anti-PIVKA-II antibody 4E8 (antibody, V domains shown)
VH: B2 VH with I11V, V51T, S60N, A85T, G86E
VL: B2 VL with S9A, P40S, S56P, P59S, S76T
notes: as for B1

biological target: Bi-SEQ ID NO: 2, *H**Glu(Bi-PEG)*NLERECVGlaETCSYEEA*NH2; assay: ECL assay (Elecsys 2010), ruthenylated antibody and biotinylated peptide, streptavidin beads

| reactivity (signal normalized to Bi-SEQ ID NO:1) | Binder |
| --- | --- |
| 4% | B1 |
| 5% | B2 |
| 5% | B3 |
| 5% | B4 |

Biological target: T1, Bi-SEQ ID NO: 1, …
Assay: as above
Procedure: (§1) An Elecsys 2010 immunoanalyzer was used to determine the reactivity of selected anti-PIVKA-II antibodies with the above peptide as follows:
(§2) 50 μL of ruthenylated anti-PIVKA-II antibody (300 ng/mL in assay buffer—s. example 2.4) were reacted with 50 μL of biotinylated peptide (2.5 ng/mL in assay buffer) and 70 μL assay-buffer in a first step, and incubated at 37° C. for 9 min. After addition of 30 μL streptavidin coated paramagnetic Elecsys® beads (0.7 mg/mL; see example 2.4) and a second incubation step (37° C., 9 min), the reaction mixture was aspirated into the measuring cell where the microparticles are magnetically captured onto the surface of the measuring-electrode. Unbound substances are removed with ProCell system-buffer (Roche Diagnostics GmbH, Germany). Application of a voltage to the electrode then induces electrochemiluminescense-based emission of light which is measured by a photomultiplier.

| reactivity (signal normalized to Bi-SEQ ID NO:1) | Binder |
| --- | --- |
| 100% | B1 |
| 100% | B2 |
| 100% | B3 |
| 100% | B4 |

Biological target: T2, Bi-SEQ ID NO: 4, …
Assay: as above
Procedure: as §1, §2

| reactivity (signal normalized to Bi-SEQ ID NO:1) | Binder |
| --- | --- |
| 68% | B1 |
| 78% | B2 |
| 68% | B3 |
| 76% | B4 |

Biological target: T3, Bi-SEQ ID NO: 3, …
Assay: as above
Procedure: as §1, §2

| reactivity (signal normalized to Bi-SEQ ID NO:1) | Binder |
| --- | --- |
| 105% | B1 |
| 107% | B2 |
| 107% | B3 |
| 108% | B4 |
